77 variants from the supplement of paper PMC7125110 can be followed below.

± gives the standard error. Variants at the floor of the assay were thinned out.

B1: glmS ribozyme (parent)
chain: AUAAAAGCGCCAGAACUACAGAAAUGUAGUUGACGAGGAGGAGGUUUAUCGAAUUUUCGGCGGAUGCCUCCAAA

Variants of B1 are the subject of one data set. The data set is described as follows: self-cleavage kobs at 2500 uM GlcN6P; higher = faster cleavage; RNA array. Conditions: with glucosamine-6-phosphate. In outline:
(§1)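 A hybridised Cy3 probe tracked barcoded ribozyme variants, transcribed in situ by E. coli RNA polymerase on sequenced MiSeq chips, at 37 °C. The variants received 40 μM to 10 mM glucosamine-6-phosphate in HEPES/KCl/Mg(OAc)2 buffer. kobs came from decay fits and kcat and KM from weighted Michaelis–Menten fits.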
In the case of C16A G38C G40C G44U C67A U69C, the “self-cleavage kobs at 2500 uM GlcN6P” value was less than 1e-05 s⁻¹.
On the same count and under the same terms, to G40U G66U C67U belongs less than 1e-05 s⁻¹.
As for G38A U49A C50A, the “self-cleavage kobs at 2500 uM GlcN6P” value was less than 1e-05 s⁻¹.
Same read-out and setting: to G51C G59A C71U belongs less than 1e-05 s⁻¹; to G41U U55C C61G, less than 1e-05 s⁻¹.
Consider G43A U47A, for which the “self-cleavage kobs at 2500 uM GlcN6P” value worked out at 1.85e-05 ± 8.2e-06 s⁻¹.
Same read-out and setting: the result for A12C G29U U65A reads 0.000175 ± 4.1e-05 s⁻¹.
The same measure, in the same setting: the result for A12G A39C G51U U56A reads less than 1e-05 s⁻¹; that for G7C C16U G29U C61U, less than 1e-05 s⁻¹.
A15G G37C U57G C67U: the “self-cleavage kobs at 2500 uM GlcN6P” value was less than 1e-05 s⁻¹.
On the same count and under the same terms, the result for A42C U46A U56A reads less than 1e-05 s⁻¹.
Still for that read-out and setting: the result for A12G U54A U55G reads 0.000119 ± 4.5e-05 s⁻¹; that for A12G G40A G60A U69G, less than 1e-05 s⁻¹; that for G43C U56A G62A, less than 1e-05 s⁻¹.
Still for that read-out and setting: to G29U U45A U54C U55C G62C belongs less than 1e-05 s⁻¹.
For the variant U30A A39G U69G, the “self-cleavage kobs at 2500 uM GlcN6P” value came to 5.54e-05 ± 2.2e-05 s⁻¹.
Same read-out and setting: the result for U31A A36U G59A reads less than 1e-05 s⁻¹; that for G43A G66U C67U C71U, less than 1e-05 s⁻¹; that for G37C A52G U56G, less than 1e-05 s⁻¹.
A33C U56C G63U: the “self-cleavage kobs at 2500 uM GlcN6P” value is less than 1e-05 s⁻¹.
On to A12U C16A U46C, for which the “self-cleavage kobs at 2500 uM GlcN6P” value came out at 0.000144 ± 4.6e-05 s⁻¹.
Same read-out and setting: to A6U G35U U45A U57A belongs less than 1e-05 s⁻¹.
Same read-out and setting: to C16U U57G U65A C70A belongs 0.000271 ± 0.00013 s⁻¹; to U46C G60C C61U, less than 1e-05 s⁻¹; to A14U G43C A53U G59C, less than 1e-05 s⁻¹.
The same measure, in the same setting: the result for C11U G43U U47G reads less than 1e-05 s⁻¹; that for A12C C16U A36C, less than 1e-05 s⁻¹; that for C16G U31G A42G, 0.000761 ± 0.0003 s⁻¹.
Consider G29A G41A A48C C71G, for which the “self-cleavage kobs at 2500 uM GlcN6P” value is less than 1e-05 s⁻¹.
On the same count and under the same terms, to A12U A14G U46A C50G belongs less than 1e-05 s⁻¹; to A15G A64C C71U, 7.46e-05 ± 1.9e-05 s⁻¹; to G29A G38U G40A A42C, less than 1e-05 s⁻¹.
Regarding C8G A15G U31A G40C G63C, the “self-cleavage kobs at 2500 uM GlcN6P” value was less than 1e-05 s⁻¹.
Take C8A G37A A42C: the “self-cleavage kobs at 2500 uM GlcN6P” value is less than 1e-05 s⁻¹.
The same measure, in the same setting: the result for G7A G13A C34U reads less than 1e-05 s⁻¹; that for G26U A33U, 0.000111 ± 2.1e-05 s⁻¹.
Take G7C U45A G51U G59U: the “self-cleavage kobs at 2500 uM GlcN6P” value was less than 1e-05 s⁻¹.
Same read-out and setting: the result for U49G A53G U69G reads 4.58e-05 ± 1.6e-05 s⁻¹; that for A14U U47A C71G, 0.000172 ± 6.8e-05 s⁻¹.
Same read-out and setting: to A14C G40U U47C A53G C61A C70U belongs less than 1e-05 s⁻¹; to A14C U45G C71A, 4.43e-05 ± 1.3e-05 s⁻¹.
On the same count and under the same terms, the result for G38C A39C U45A reads less than 1e-05 s⁻¹; that for G41A U47G C70G, 9.9e-05 ± 3.6e-05 s⁻¹.
As for C8A C58U A64U C67G, the “self-cleavage kobs at 2500 uM GlcN6P” value is less than 1e-05 s⁻¹.
Same read-out and setting: to G37U G60U belongs less than 1e-05 s⁻¹.
Same read-out and setting: the result for G7U C8U G32U C50U reads less than 1e-05 s⁻¹; that for G7A G13A G40C U47G, less than 1e-05 s⁻¹; that for U31C G59A G66U, less than 1e-05 s⁻¹.
The same measure, in the same setting: to G35C C50G U54G belongs 8.42e-05 ± 1.5e-05 s⁻¹; to G41A U45A C71U, 9.76e-05 ± 2.1e-05 s⁻¹.
Consider A36C G41C A42U U46C, for which the “self-cleavage kobs at 2500 uM GlcN6P” value was less than 1e-05 s⁻¹.
The same measure, in the same setting: the result for A14G G29A C70G reads 0.000126 ± 4e-05 s⁻¹; that for A6G U31A, 0.000107 ± 3.2e-05 s⁻¹.
Same read-out and setting: to U30G G41U G44U belongs less than 1e-05 s⁻¹; to A6U G9A C68U, less than 1e-05 s⁻¹.
Same read-out and setting: to C8U C61A C68U belongs less than 1e-05 s⁻¹; to C10U C16U A33U, 6.87e-05 ± 3.4e-05 s⁻¹.
For A36C C50U G59A, the “self-cleavage kobs at 2500 uM GlcN6P” value was less than 1e-05 s⁻¹.
Take G41C U49A U65A: the “self-cleavage kobs at 2500 uM GlcN6P” value is less than 1e-05 s⁻¹.
On the same count and under the same terms, the result for A14U C67A C71U reads 0.000265 ± 5.2e-05 s⁻¹; that for G38C A48U U57C C67U, less than 1e-05 s⁻¹.
Turning to G7U G43C A53U A64G, the “self-cleavage kobs at 2500 uM GlcN6P” value was less than 1e-05 s⁻¹.
Take G9C G37C A42U G43C C50U C67G C71A: the “self-cleavage kobs at 2500 uM GlcN6P” value was less than 1e-05 s⁻¹.
As for C16G U55A C67U C71A, the “self-cleavage kobs at 2500 uM GlcN6P” value was 8.06e-05 ± 2.9e-05 s⁻¹.
The same measure, in the same setting: to U31C G35A A48C belongs less than 1e-05 s⁻¹.
The same measure, in the same setting: to C10A C11A A39C belongs less than 1e-05 s⁻¹.
The same measure, in the same setting: the result for G13A G43A U49C C58A reads less than 1e-05 s⁻¹.
G7C G37A G63U: the “self-cleavage kobs at 2500 uM GlcN6P” value was less than 1e-05 s⁻¹.
With C16G G29C U31G, the “self-cleavage kobs at 2500 uM GlcN6P” value amounted to 0.00447 ± 0.00064 s⁻¹.
Still for that read-out and setting: the result for G7C C11G G37U C58U reads less than 1e-05 s⁻¹.
Same read-out and setting: to A12G A48C C50U belongs less than 1e-05 s⁻¹; to C11G U56G G59U, 4.72e-05 ± 2e-05 s⁻¹.
Regarding C10A A12C U30A U31A, the “self-cleavage kobs at 2500 uM GlcN6P” value worked out at 5.52e-05 ± 2.3e-05 s⁻¹.
The same measure, in the same setting: to C8A G32U G37U belongs less than 1e-05 s⁻¹; to G13A C34G G35A G41A U65A G66U, less than 1e-05 s⁻¹; to G7A C67A U69A, less than 1e-05 s⁻¹.
U31C A36G G41A G60U: the “self-cleavage kobs at 2500 uM GlcN6P” value is less than 1e-05 s⁻¹.

In another data set the parent is B1. Kind of data set: self-cleavage kobs at 10000 uM GlcN6P; higher = faster cleavage; RNA array. Conditions: with glucosamine-6-phosphate. The essentials: as §1
G43A U47A: the “self-cleavage kobs at 10000 uM GlcN6P” value came to 4.61e-05 ± 1.8e-05 s⁻¹.
On the same count and under the same terms, the result for A12C G29U U65A reads 0.000443 ± 7.6e-05 s⁻¹; that for A12U C16A U46C, 0.000331 ± 7.6e-05 s⁻¹.
For U46C G60C C61U, the “self-cleavage kobs at 10000 uM GlcN6P” value was less than 1e-05 s⁻¹.
Same read-out and setting: to G29A G38U G40A A42C belongs less than 1e-05 s⁻¹.
Same read-out and setting: the result for G35C C50G U54G reads 0.000106 ± 1.6e-05 s⁻¹.
Same read-out and setting: to A36C G41C A42U U46C belongs less than 1e-05 s⁻¹; to A6G U31A, 0.000258 ± 6e-05 s⁻¹; to C10U C16U A33U, 3.41e-05 ± 1.4e-05 s⁻¹.
As for G41C U49A U65A, the “self-cleavage kobs at 10000 uM GlcN6P” value was less than 1e-05 s⁻¹.
As for C16G U55A C67U C71A, the “self-cleavage kobs at 10000 uM GlcN6P” value was determined as 3.71e-05 ± 1.3e-05 s⁻¹.
On the same count and under the same terms, the result for G7C C11G G37U C58U reads less than 1e-05 s⁻¹.
